{"source": "paper PMC11889175", "about": "“Molecular principles of redox-coupled sodium pumping of the ancient Rnf machinery” (Nature Communications, 2025)", "molecules": {"B1": {"name": "RnfE subunit of the Rnf complex from Acetobacterium woodii (natural protein)", "chain": "MNFMKNLTRGIIRENPTFVLVLGMCPTLAVTTSAINGMGMGLATMLVLIGSNVAISALRKVIPDNIRIPAFVVVIASFVTIVGMLMKAYVPALDAALGIFIPLIVVNCIILARAEAFAFSNGIADSFADAVGMGLGFTLALTILGSIREILGAGSIFGFSLFGAAYEPVLLMILPPGAFLTLGLLIGLINWKTKKA", "notes": "RnfE, integral membrane subunit of the Rnf complex, homologous to RnfA (29% identity), Acetobacterium woodii; rnf genes amplified from genomic DNA"}, "B2": {"name": "RnfA subunit of the Rnf complex from Acetobacterium woodii (natural protein)", "chain": "MTLIFIMISAIFVNNFVLSRFLGICPFLGVSKQVETAVGMGVAVTFVMALASAITYVVQYAILDPLSLGYLQTIAFILIIAALVQLVEMIIKKSSPSLYQALGVYLPLITTNCAVLGVALINIQNEYNFIETIFNGVGAALGFTLAIVLFAGIRERLETSAVPKALEGFPIALLTAGLMAIAFLGFSGMKL", "notes": "RnfA, integral membrane subunit of the Na+-pumping Rnf complex, Acetobacterium woodii; rnf genes amplified from genomic DNA"}, "B3": {"name": "RnfD subunit of the Rnf complex from Acetobacterium woodii (natural protein)", "chain": "MNELNLTVSSSPHIRAKHSTASIMQNVIIALLPALAVAGYVFGLWALALVAICVISSVATEAVIQKLLKKPITVNDWSAVVTGVLLAFNLPINAPWWIGVVGSVFAIAIVKQCFGGLGQNFINPALAARAFLLASWPGHMTSTAYIPLTDTVTTATPLALLKAGETGSMPSTLDLFTGLNGVYGCIGEISALALLIGGLYLIYKGIISWRIPTIYLLTIAIFALLVGQDPIVHMVSGGVMLGAFFMATDYASSPVTAKGQIIYAIGCGLITMIIRLYGGYPEGCSYSILLMNVATPLIERFTKERIYGVTKIKKEAKA", "modifications": "FMN covalently linked to T156", "notes": "RnfD, integral membrane subunit of the Rnf complex with ten transmembrane helices (riboflavin and covalent FMN), Acetobacterium woodii; rnf genes amplified from genomic DNA"}, "B4": {"name": "RnfG subunit of the Rnf complex from Acetobacterium woodii (natural protein)", "chain": "METKEKVQIDWKVVFKLGLILFVISAVAACALALTNYVTAGTIEEMNVQTNTVARQEVLPKAADFEAVPAKDVEKIASEIGMEKPEELLEVYIGKSNGEVVGYTVKTGPTSGYAGEVQVLTGISADGVITGITIIKSNETPGLGAKASGVWNDQFTGKSAKEELVVVKGTTKEGSNEIQAITGSTITSKAVTSGVNMSIQVYQNLSK", "modifications": "FMN covalently linked to T185", "notes": "RnfG, membrane-anchored periplasmic flavoprotein subunit of the Rnf complex, Acetobacterium woodii; rnf genes amplified from genomic DNA; The complex was captured on Ni-NTA by this tag; no cleavage step is described; not shown: His-Tag, C-terminal, kept"}, "B5": {"name": "RnfB subunit of the Rnf complex from Acetobacterium woodii (natural protein)", "chain": "MLNAILVPVGILGVFGLIFGIGLAIAAKVFEVYEDPRVPLVRAALPGANCGGCGLPGCDALAANIVGGSAAIDACPVGGASCAAAVAEIMGMEAGSAVKKVATVICQGTCETAPNRAEYYGEMDCREAMIASGGSKGCRYGCLGYGTCKAVCPFDAIVIGEDGLPKVDPEKCTSCGKCVEACPKSIMTLVPEAQEVIVKCHNFDKGKIARLSCTTACIACGACVKACRFDAITVENNCAKIDYDKCRQCYECVDKCPMNCISGDVEYGKSTAYIIEENCIACGLCAKNCPVNAITGEIKKPPYVIDHDMCIGCGICFDKCRKSAIEMRPNKTK", "notes": "RnfB, membrane-anchored poly-ferredoxin subunit of the Rnf complex with eight [4Fe4S] clusters, Acetobacterium woodii; rnf genes amplified from genomic DNA; B8-domain is residues 30-100 of RnfB; also called poly-ferredoxin subunit RnfB"}}, "key": {"[1]": {"target": "T1, Rnf complex (NADH / FMN site in RnfC) (Acetobacterium woodii, UniProt H6LC32)", "details": "30 µM ferredoxin pre-reduced by CO and CODH/ACS; 20 mM Tris/HCl, 20 mM NaCl, pH 7.2, 30 °C"}, "[2]": {"target": "Rnf complex (FMN^G site in RnfG) (Acetobacterium woodii, UniProt H6LC30)", "details": "covalent, linked to T185 of RnfG; 5 µM FMN in purification buffer"}, "[3]": {"target": "Rnf complex (riboflavin and FMN^D sites in RnfD) (Acetobacterium woodii, UniProt H6LC31)"}, "[4]": {"target": "T1, Rnf complex (NADH / FMN site in RnfC)", "test": "cryo-EM structure, […] Å", "type": "binding", "parameters": "whole six-subunit complex, His-tag at C-terminus of RnfG, plasmid-produced in A. woodii delta-rnf, DDM-solubilised, Ni-NTA and gel filtration, anoxic; with Na(+)-translocating ferredoxin:NAD(+) oxidoreductase complex subunit B; Na(+)-translocating ferredoxin:NAD(+) oxidoreductase complex subunit D; Na(+)-translocating ferredoxin:NAD(+) oxidoreductase complex subunit G; Na(+)-translocating ferredoxin:NAD(+) oxidoreductase complex subunit E; Na(+)-translocating ferredoxin:NAD(+) oxidoreductase complex subunit A", "details": "500 µM NADH, 10 min, anoxic; stacks on non-covalent FMN of RnfC"}, "[5]": {"target": "B4", "test": "cryo-EM structure; Rnf complex purified in DDM, grids prepared under strictly anoxic conditions; NADH-reduced (3.3 Å), Fd-reduced (2.8 Å; state with B8 closer to the membrane 2.9 Å) and apo (3.0 Å) states, all with the same overall organisation", "details": "both partners purified"}, "[6]": {"target": "B1", "test": "cryo-EM structure; Rnf complex purified in DDM, grids prepared under strictly anoxic conditions; NADH-reduced (3.3 Å), Fd-reduced (2.8 Å; state with B8 closer to the membrane 2.9 Å) and apo (3.0 Å) states, all with the same overall organisation", "details": "both partners purified"}, "[7]": {"target": "T2, RnfC subunit of the Rnf complex from Acetobacterium woodii (Acetobacterium woodii, UniProt H6LC32 1-443)", "T2 construct": "rnf genes amplified from genomic DNA", "T2 sequence": "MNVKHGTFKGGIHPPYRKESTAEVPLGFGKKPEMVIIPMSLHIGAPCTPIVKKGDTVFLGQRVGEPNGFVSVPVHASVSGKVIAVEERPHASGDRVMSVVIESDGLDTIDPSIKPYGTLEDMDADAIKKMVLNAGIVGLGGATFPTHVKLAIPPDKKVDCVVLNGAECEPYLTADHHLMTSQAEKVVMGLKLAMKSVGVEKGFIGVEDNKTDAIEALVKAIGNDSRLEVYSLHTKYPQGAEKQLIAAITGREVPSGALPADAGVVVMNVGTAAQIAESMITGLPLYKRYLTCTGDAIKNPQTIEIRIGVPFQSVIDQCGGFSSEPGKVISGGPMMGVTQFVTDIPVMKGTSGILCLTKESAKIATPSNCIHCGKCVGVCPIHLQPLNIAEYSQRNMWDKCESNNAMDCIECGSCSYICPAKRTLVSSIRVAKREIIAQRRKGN", "test": "cryo-EM structure; Rnf complex purified in DDM, grids prepared under strictly anoxic conditions; NADH-reduced (3.3 Å), Fd-reduced (2.8 Å; state with B8 closer to the membrane 2.9 Å) and apo (3.0 Å) states, all with the same overall organisation", "details": "both partners purified"}, "[8]": {"target": "B3", "test": "cryo-EM structure; Rnf complex purified in DDM, grids prepared under strictly anoxic conditions; NADH-reduced (3.3 Å), Fd-reduced (2.8 Å; state with B8 closer to the membrane 2.9 Å) and apo (3.0 Å) states, all with the same overall organisation", "details": "both partners purified"}, "[9]": {"target": "B5", "test": "cryo-EM structure; Rnf complex purified in DDM, grids prepared under strictly anoxic conditions; NADH-reduced (3.3 Å), Fd-reduced (2.8 Å; state with B8 closer to the membrane 2.9 Å) and apo (3.0 Å) states, all with the same overall organisation", "details": "both partners purified"}}, "note": "Like-named read-outs stand apart in the source and are kept apart here.", "data": [{"molecule": "NC(=O)c1ccc[n+]([C@@H]2O[C@H](COP(=O)(O)OP(=O)(O)OC[C@H]3O[C@@H](n4cnc5c(N)ncnc54)[C@H](O)[C@@H]3O)[C@@H](O)[C@H]2O)c1", "note": "[NAD^+]", "values": [{"measurement": "ferredoxin:NAD oxidoreductase assay", "setting": "[1]", "value": "catalysed the ferredoxin-dependent reduction of NAD^+"}]}, {"molecule": "Cc1cc2nc3c(=O)[nH]c(=O)nc-3n(C[C@H](O)[C@H](O)[C@H](O)COP(=O)(O)O)c2cc1C", "note": "[flavin mononucleotide]", "values": [{"measurement": "cryo-EM structure, 2.8-3.3 Å", "setting": "[2]", "value": "covalently binds FMN^G via T185^RnfG in its antiparallel βαβ-fold"}, {"measurement": "cryo-EM structure, 2.8-3.3 Å", "setting": "[3]; covalent, linked to T156 of RnfD, 5 µM FMN in purification buffer", "value": "RnfD contains an FMN^D cofactor covalently linked to T156^RnfD"}]}, {"molecule": "NC(=O)C1=CN([C@@H]2O[C@H](COP(=O)(O)OP(=O)(O)OC[C@H]3O[C@@H](n4cnc5c(N)ncnc54)[C@H](O)[C@@H]3O)[C@@H](O)[C@H]2O)C=CC1", "note": "[NADH]", "values": [{"measurement": "cryo-EM structure, 3.3 Å", "setting": "[4]", "value": "we observed a well-resolved density for a bound NADH molecule"}]}, {"molecule": "Cc1cc2nc3c(=O)[nH]c(=O)nc-3n(C[C@H](O)[C@H](O)[C@H](O)CO)c2cc1C", "note": "[riboflavin]", "values": [{"measurement": "cryo-EM structure, 2.8-3.3 Å", "setting": "[3]; pocket of RnfD connected to cytoplasmic side, hydrogen bonds to D249 and N123 of RnfD", "value": "RnfD binds the redox cofactor riboflavin (RBF)"}]}, {"molecule": "B1", "values": [{"measurement": "binding result", "setting": "[5]", "value": "binds"}]}, {"molecule": "B2", "values": [{"measurement": "binding result", "setting": "[6]", "value": "binds"}, {"measurement": "binding result", "setting": "[5]", "value": "binds"}]}, {"molecule": "B3", "values": [{"measurement": "binding result", "setting": "[7]", "value": "binds"}]}, {"molecule": "B4", "values": [{"measurement": "binding result", "setting": "[8]", "value": "binds"}, {"measurement": "binding result", "setting": "[9]", "value": "binds"}]}, {"molecule": "B5", "values": [{"measurement": "binding result", "setting": "[7]", "value": "binds"}]}]}
